The record followed here is patent US20240182526A1 (UNIVERSITY OF SOUTHERN CALIFORNIA, published 2024).

The experiment has as its target T1, SRC, endogenous in mouse splenocytes (mouse, UniProt P05480 2-535).
T1 construct: Detected as pSRC (pY416-SRC antibody) in gp130 co-immunoprecipitates; also called pSRC; c-SRC
Put plainly: co-immunoprecipitation, F814 mouse splenocytes with or without OSM.

B1: gp130 F814 variant of the CRISPR/Cas9 F814 mouse (SEQ ID NO:27 with F812 substitution) (receptor)
chain: QLLEPCGYIYPEFPVVQRGSNFTAICVLKEACLQHYYVNASYIVWKTNHAAVPREQVTVINRTTSSVTFTDVVLPSVQLTCNILSFGQIEQNVYGVTMLSGFPPDKPTNLTCIVNEGKNMLCQWDPGRETYLETNYTLKSEWATEKFPDCQSKHGTSCMVSYMPTYYVNIEVWVEAENALGKVSSESINFDPVDKVKPTPPYNLSVTNSEELSSILKLSWVSSGLGGLLDLKSDIQYRTKDASTWIQVPLEDTMSPRTSFTVQDLKPFTEYVFRIRSIKDSGKGYWSDWSEEASGTTYEDRPSRPPSFWYKTNPSHGQEYRSVRLIWKALPLSEANGKILDYEVILTQSKSVSQTYTVTGTELTVNLTNDRYVASLAARNKVGKSAAAVLTIPSPHVTAAYSVVNLKAFPKDNLLWVEWTPPPKPVSKYILEWCVLSENAPCVEDWQQEDATVNRTHLRGRLLESKCYQITVTPVFATGPGGSESLKAYLKQAAPARGPTVRTKKVGKNEAVLAWDQIPVDDQNGFIRNYSISYRTSVGKEMVVHVDSSHTEYTLSSLSSDTLYMVRMAAYTDEGGKDGPEFTFTTPKFAQGEIEAIVVPVCLAFLLTTLLGVLFCFNKRDLIKKHIWPNVPDPSKSHIAQWSPHTPPRHNFNSKDQMYSDGNFTDVSVVEIEANNKKPCPDDLKSVDLFKKEKVSTEGHSSGIGGSSCMSSSRPSISSNEENESAQSTASTVQYSTVVHSGYRHQVPSVQVFSRSESTQPLLDSEERPEDLQLVDSVDGGDEILPRQPFFKQNCSQPEACPEISHFERSNQVLSGNEEDFVRLKQQQVSDHISQPYGSEQRRLFQEGSTADALGTGADGQMERFESVGMETTIDEEIPKSYLPQTVRQGGYMPQ
notes: Endogenous protein in lysates of F814 mouse splenocytes; also called Y814 mutant; gp130 Y814-deficient
B1: the binding result is on record as “no binding”.
